The values that follow are results of earlier work, collected in patent US6022890A, “Immunosuppressant tetracyclic triterpenes” (Merck & Co., Inc., priority 1998, dated 2000).

This series has as its target T1, Kv 1.3 channels (CHO cells transfected with Kv 1.3 channels) (Homo sapiens, UniProt P22001).
T1 construct: expressed in transfected cells; host or cells: CHO cells
The note with it: stated for the reference blocker that defines the efflux window.

T1 sequence (P22001 whole entry): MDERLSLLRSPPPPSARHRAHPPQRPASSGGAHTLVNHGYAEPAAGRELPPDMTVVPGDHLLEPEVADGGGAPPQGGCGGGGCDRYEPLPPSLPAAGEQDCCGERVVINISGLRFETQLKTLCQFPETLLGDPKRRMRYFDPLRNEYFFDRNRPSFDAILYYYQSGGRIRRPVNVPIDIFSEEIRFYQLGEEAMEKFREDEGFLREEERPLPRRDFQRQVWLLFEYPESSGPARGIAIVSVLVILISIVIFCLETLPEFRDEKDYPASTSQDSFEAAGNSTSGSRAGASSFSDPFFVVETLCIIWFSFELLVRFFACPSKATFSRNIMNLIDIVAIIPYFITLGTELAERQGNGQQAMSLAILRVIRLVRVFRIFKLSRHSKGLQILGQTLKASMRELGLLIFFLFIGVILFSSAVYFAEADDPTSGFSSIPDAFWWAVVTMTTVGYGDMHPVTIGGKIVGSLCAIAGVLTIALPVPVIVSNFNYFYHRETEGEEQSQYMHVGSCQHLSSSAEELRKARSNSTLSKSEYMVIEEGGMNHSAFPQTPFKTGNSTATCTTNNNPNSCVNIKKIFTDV

Consider “margatoxin (TIINVKCTSPKQCLPPCKAQFGQSAGAKCMNGKCKCYPH; UniProt P40755 1-39, looked up)”, for which the IC50 is 0.1 nM.

As a reminder, the IC50 is the concentration needed to halve the response being measured.
